# Measured values as given in article PMC9997507.
# Molecular target: ADAM23-Fc (UniProt Q9R1V7)
# Test: pull-down; as a2 but with co-expressed LGI3 (LGI3V5/His plasmid); secreted proteins precipitated from conditioned medium with Protein A or Ni-NTA beads; Western blot, band densities quantified in triplicate for ADAM23Fc with ADAM23γHis
substance,measurement,value
ADAM23γV5/His (domain or fragment),fold change of the interaction with LGI3 against without LGI3,2.5 fold
